Substrate: CC1=C(CCC(=O)O)c2cc3nc(cc4[nH]c(cc5[nH]c(cc1n2)c(C)c5CCC(=O)O)c(CCC(=O)O)c4C)C(CCC(=O)O)=C3C
Assay: purified protein
Type: biochemical, Corynebacterium glutamicum
Details: ferrous ammonium sulfate 100 uM, Tris-HCl pH 8.0, 3.3% Tween 20, 5 mM glutathione, 30 °C

Row | Protein | Km | kcat | kcat/Km
1 | CpfC (coproporphyrin ferrochelatase) (Corynebacterium glutamicum ATCC 13032) (protein, heterologously expressed in E. coli BL21, purified) MNERTSDAFDALLVLSFGGPEGHEEVRPFLENVTHGRGIPPERLDEVAVHYHHFGGISPINALNREIIANVEKELASRDHKLPVYFGNRNWKPFDNEAAEQMADDGVKNALVLATSAWGGYSGCRQYQEDIQGMIKHLESQGQSITFTKLRQFYDHPRFVSTMAQLVQDSYAKLPDELRDEARLVFTAHSIPLTADNAAGTPEDGSLYSTQVKEASALIAEAVGVSDFDVVWQSRSGSPHTPWLEPDIVDHAVELNEKGQKALVVCPVGFISDHMEVIWDLDSELMEEAEKRNMVVERVATVGPTDEFAALVVDLIEEAELKRVIERLGKLPARGSSVNGAPCGDGCCGTAKHKTARVNPNARSAAPAAN | 15.17 ± 1.84 × 10^-3 mM | 0.26 ± 0.09 s⁻¹ | 17430 ± 110 M⁻¹ s⁻¹
2 | CpfC (coproporphyrin ferrochelatase) (Corynebacterium glutamicum ATCC 13032; T194S) (protein, heterologously expressed in E. coli BL21, purified) MNERTSDAFDALLVLSFGGPEGHEEVRPFLENVTHGRGIPPERLDEVAVHYHHFGGISPINALNREIIANVEKELASRDHKLPVYFGNRNWKPFDNEAAEQMADDGVKNALVLATSAWGGYSGCRQYQEDIQGMIKHLESQGQSITFTKLRQFYDHPRFVSTMAQLVQDSYAKLPDELRDEARLVFTAHSIPLSADNAAGTPEDGSLYSTQVKEASALIAEAVGVSDFDVVWQSRSGSPHTPWLEPDIVDHAVELNEKGQKALVVCPVGFISDHMEVIWDLDSELMEEAEKRNMVVERVATVGPTDEFAALVVDLIEEAELKRVIERLGKLPARGSSVNGAPCGDGCCGTAKHKTARVNPNARSAAPAAN | 11.63 ± 1.50 × 10^-3 mM | 0.32 ± 0.06 s⁻¹ | 27300 ± 4880 M⁻¹ s⁻¹
3 | CpfC (coproporphyrin ferrochelatase) (Corynebacterium glutamicum ATCC 13032; E31V) (protein, heterologously expressed in E. coli BL21, purified) MNERTSDAFDALLVLSFGGPEGHEEVRPFLVNVTHGRGIPPERLDEVAVHYHHFGGISPINALNREIIANVEKELASRDHKLPVYFGNRNWKPFDNEAAEQMADDGVKNALVLATSAWGGYSGCRQYQEDIQGMIKHLESQGQSITFTKLRQFYDHPRFVSTMAQLVQDSYAKLPDELRDEARLVFTAHSIPLTADNAAGTPEDGSLYSTQVKEASALIAEAVGVSDFDVVWQSRSGSPHTPWLEPDIVDHAVELNEKGQKALVVCPVGFISDHMEVIWDLDSELMEEAEKRNMVVERVATVGPTDEFAALVVDLIEEAELKRVIERLGKLPARGSSVNGAPCGDGCCGTAKHKTARVNPNARSAAPAAN | 8.26 ± 0.52 × 10^-3 mM | 0.43 ± 0.01 s⁻¹ | 52900 ± 1400 M⁻¹ s⁻¹
4 | CpfC (coproporphyrin ferrochelatase) (Corynebacterium glutamicum ATCC 13032; E100D/E31V) (protein, heterologously expressed in E. coli BL21, purified) MNERTSDAFDALLVLSFGGPEGHEEVRPFLVNVTHGRGIPPERLDEVAVHYHHFGGISPINALNREIIANVEKELASRDHKLPVYFGNRNWKPFDNEAADQMADDGVKNALVLATSAWGGYSGCRQYQEDIQGMIKHLESQGQSITFTKLRQFYDHPRFVSTMAQLVQDSYAKLPDELRDEARLVFTAHSIPLTADNAAGTPEDGSLYSTQVKEASALIAEAVGVSDFDVVWQSRSGSPHTPWLEPDIVDHAVELNEKGQKALVVCPVGFISDHMEVIWDLDSELMEEAEKRNMVVERVATVGPTDEFAALVVDLIEEAELKRVIERLGKLPARGSSVNGAPCGDGCCGTAKHKTARVNPNARSAAPAAN | 9.78 ± 0.82 × 10^-3 mM | 0.36 ± 0.04 s⁻¹ | 37000 ± 4520 M⁻¹ s⁻¹
5 | CpfC (coproporphyrin ferrochelatase) (Corynebacterium glutamicum ATCC 13032; E181G) (protein, heterologously expressed in E. coli BL21, purified) MNERTSDAFDALLVLSFGGPEGHEEVRPFLENVTHGRGIPPERLDEVAVHYHHFGGISPINALNREIIANVEKELASRDHKLPVYFGNRNWKPFDNEAAEQMADDGVKNALVLATSAWGGYSGCRQYQEDIQGMIKHLESQGQSITFTKLRQFYDHPRFVSTMAQLVQDSYAKLPDELRDGARLVFTAHSIPLTADNAAGTPEDGSLYSTQVKEASALIAEAVGVSDFDVVWQSRSGSPHTPWLEPDIVDHAVELNEKGQKALVVCPVGFISDHMEVIWDLDSELMEEAEKRNMVVERVATVGPTDEFAALVVDLIEEAELKRVIERLGKLPARGSSVNGAPCGDGCCGTAKHKTARVNPNARSAAPAAN | 10.04 ± 1.52 × 10^-3 mM | 0.3 ± 0.04 s⁻¹ | 30600 ± 4310 M⁻¹ s⁻¹
6 | CpfC (coproporphyrin ferrochelatase) (Corynebacterium glutamicum ATCC 13032; E100D) (protein, heterologously expressed in E. coli BL21, purified) MNERTSDAFDALLVLSFGGPEGHEEVRPFLENVTHGRGIPPERLDEVAVHYHHFGGISPINALNREIIANVEKELASRDHKLPVYFGNRNWKPFDNEAADQMADDGVKNALVLATSAWGGYSGCRQYQEDIQGMIKHLESQGQSITFTKLRQFYDHPRFVSTMAQLVQDSYAKLPDELRDEARLVFTAHSIPLTADNAAGTPEDGSLYSTQVKEASALIAEAVGVSDFDVVWQSRSGSPHTPWLEPDIVDHAVELNEKGQKALVVCPVGFISDHMEVIWDLDSELMEEAEKRNMVVERVATVGPTDEFAALVVDLIEEAELKRVIERLGKLPARGSSVNGAPCGDGCCGTAKHKTARVNPNARSAAPAAN | 9.40 ± 1.50 × 10^-3 mM | 0.36 ± 0.06 s⁻¹ | 38100 ± 650 M⁻¹ s⁻¹

From PMC10465345, “Development of a growth-coupled selection platform for directed evolution of heme biosynthetic enzymes in Corynebacterium glutamicum” (Frontiers in Bioengineering and Biotechnology, 2023)
